Target: the molecule itself
Assay: SEC-MALS; 3 mg/ml protein; Superdex 200 Increase 10/300 equilibrated in 25 mM Tris-HCl pH 8.5, 250 mM NaCl; 20 °C; 30 µL injected, 0.6 mL/min

B1: Human lamin A Ig (428-552) (domain or fragment, UniProt P02545 428-552, looked up)
chain: SSFSQHARTSGRVAVEEVDEEGKFVRLRNKSNEDQSMGNWQIKRQNGDDPLLTYRFPPKFTLKAGQVVTIWAAGAGATHSPPTDLVWKAQNTWGCGNSLRTALINSTGEEVAMRKLVRSVTVVED
notes: Ig fold domain of human lamin A, residues 428-552, cloned into pQE-80L between BamHI and KpnI; For the NMR experiments the protein was 13C,15N-labelled; also called wild type Ig; Ig fold domain of lamin A; source: E. coli BL21 (DE3) pLysS, purified (His-Trap column)
- stoichiometry N: 2

Source: paper PMC6138676, “Skeletal Muscle Dystrophy mutant of lamin A alters the structure and dynamics of the Ig fold domain” (Scientific Reports, 2018)
